Assay results published in article PMC4724879 (Chemical science (Royal Society of Chemistry : 2010), 2014).

Target: the molecule itself
Assay: crystal structure

B1: Helicobacter pylori high temperature requirement A protein (HpHtrA) (enzyme)
chain: GNIQIQSMPKVKERVSVPSKDDTIYSYHDSIKDSIKAVVNISTEKKIKNNFIGGGVFNDPFFQQFFGDLGGMIPKERMERALGSGVIISKDGYIVTNNHVIDGADKIKVTIPGSNKEYSATLVGTDSESDLAVIRITKDNLPTIKFSDSNDISVGDLVFAIGNPFGVGESVTQGIVSALNKSGIGINSYENFIQTDASINPGNSGGALIDSRGGLVGINTAIISKTGGNHGIGFAIPSNMVKDTVTQLIKTGKIERGYLGVGLQDLSGDLQNSYDNKEGAVVISVEKDSPAKKAGILVWDLITEVNGKKVKNTNELRNLIGSMLPNQRVTLKVIRDKKERAFTLTLAERKNPNKKETISAQNGAQGQLNGLQVEDLTQETKRSMRLSDDVQGVLVSQVNENSPAEQAGFRQGNIITKIEEVEVKSVADFNHALEKYKGKPKRFLVLDLNQGYRIILVK
For B1, the “stoichiometry N” value was 6.
